In patent US20210277101A1 (UNIVERSIT LAVAL, published 2021):

How the values were obtained:
[1] = target: T1, S100A9 peptide C7 (human); test: direct ELISA on coated peptides
T1 construct: also called 10 last amino acid of the C-terminal region of S100A9
T1 peptide: HKPGLGEGTP

[2] = target: T2, S100A9 peptide C7a (human); test: direct ELISA on coated peptides
T2 peptide: PGLGEGTP

[3] = target: T3, S100A9 C-term (C) peptide (human); test: dot blot on PVDF
T3 construct: also called C-terminal peptide
T3 peptide: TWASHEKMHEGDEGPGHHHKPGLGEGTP
Experimental: FIG. 7 illustrates that 6B4 recognizes the C-terminal peptide of S100A9. Recombinant S100A8 and S100A9 (1 μg), PBS1×, N-terminal (N), Hinge (H) and C-terminal (C) peptides (10 and 50 μg) were put onto PVDF membrane to perform dot blot analysis using the mAb 6B4.
A dot blot was first performed to verify the ability of the mAb 6B4 to recognize these regions of S100A9. Briefly, 1 μg of recombinant S100A9 or S100A8 (negative control), and 10 and 50 μg of S100A9 peptides were deposited on PVDF membrane. The dried membrane was then blocked with TBS/0.1% Tween/milk 5% 30 min at room temperature under gentle agitation and labelled with 1 μg/ml of 6B4 mAb for 1 hr at RT. The membrane was extensively washed with TBS/0.1% Tween, then labelled with goat anti-mouse ( 1/20 000) in blocking buffer for 1 hr at RT under gentle agitation. The membrane was then extensively washed and visualized by enhanced chemiluminescence (ECL) as described by the manufacturer (PerkinElmer).

Measured: binding result

B1: mouse monoclonal antibody 6B4 (antibody, IgG1, V domains shown)
VH: QVQLQQPGSELVRPGASVKLSCKASGYTFTTYWIHWVRQRPGQGLEWIGNIYPGGDSSNYDEKVKSRATLTVDTSSSTAYMQLSSLTSEDSAVYYCSRWGIWGQGTLVTVSA
VL: ENVLTQSPAIMSASPGEKVTMTCSARSSVSYVHWYQQKSNTSPKLWIYDTSKLASGVPGRFSGSGSGNSYSLTISSMEAEDVATYYCFQGSGYPLTFGAGTKLELK
notes: also called mAb 6B4; 6B4 mAb
binds: all assays above
